The target of this experiment is T1, MLO-Y4 cell surface proteins (Mus musculus, UniProt Q9CXD6).
T1 construct: endogenous in cells; host or cells: MLO-Y4
T1 sequence (Q9CXD6 1-340): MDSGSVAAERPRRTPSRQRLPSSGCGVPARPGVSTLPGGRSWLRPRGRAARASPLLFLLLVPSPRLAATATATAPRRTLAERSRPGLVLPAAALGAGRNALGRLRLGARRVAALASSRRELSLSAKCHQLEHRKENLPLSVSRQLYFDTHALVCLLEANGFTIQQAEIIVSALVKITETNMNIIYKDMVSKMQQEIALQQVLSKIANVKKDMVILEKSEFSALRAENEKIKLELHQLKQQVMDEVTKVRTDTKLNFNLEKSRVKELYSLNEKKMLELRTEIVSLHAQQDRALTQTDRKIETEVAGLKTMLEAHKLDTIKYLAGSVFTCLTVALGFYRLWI
Nature of the experiment: Crosslinking/co-immunoprecipitation/mass spectrometry (TMT quantitative proteomics) to identify irisin receptors. Type of experiment: binding. As to conditions: co-precipitated protein Mcur1 (MCUR1_MOUSE). A digest of the protocol: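 Mouse MLO-Y4 cells were switched to serum-free FreeStyle medium for 4 h, chilled, then exposed to 10 nM His-tagged irisin (or adipsin as control) for 20 min. Cells were crosslinked with 1.5 mM DTSSP (30 min, ice), and bound proteins were pulled down on Ni-NTA and eluted with 250 mM imidazole. Eluates were separated by SDS-PAGE, trypsin-digested in gel, TMT 6-plex labelled and quantified by MS3-based LC-MS/MS on an Orbitrap Fusion Lumos.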

B1: irisin: secreted cleaved form of FNDC5; recombinant human/mouse irisin with C-terminal his tag produced in HEK293 cells (protein)
chain: DSPSAPVNVTVRHLKANSAVVSWDVLEDEVVIGFAISQQKKDVRMLRFIQEVNTTTRSCALWDLEEDTEYIVHVQAISIQGQSPASEPVLFKTPREAEKMASKNKDEVTMKE
modifications: left off: small tags and cut ends
notes: secreted cleaved form of FNDC5; recombinant human/mouse irisin with C-terminal his tag produced in HEK293 cells
For the molecule B1, the TMT signal-to-noise ratio is given as 951.207 and the “irisin/adipsin TMT signal-to-noise ratio” value was 0.583.

Source of the values: US20210063414A1, “METHODS FOR PREVENTING AND/OR TREATING BONE LOSS CONDITIONS BY MODULATING IRISIN” (Dana-Farber Cancer Institute, Inc., priority 2018, published 2021).
